Assay results reported in patent publication EP4477673A1, “IMMUNOCONJUGATE AND USE THEREOF” (priority 2022, dated 2023).
Where two headings read alike, the source gives them in different places.

Legend:
human PD-1 [1] = molecular target: T1, human PD-1 (human, UniProt Q15116 25-288); test: flow cytometry on Jurkat cells overexpressing human PD-1
T1 construct: One molecule for human PD-1 on Jurkat cells (Promega), on M07e-hPD-1 cells and on T cells of the MLR; also called PD-1 expressed on the cell membrane; Jurkat cells overexpressing human PD-1 (J1250, Promega)
T1 sequence (Q15116 25-288 limits assumed): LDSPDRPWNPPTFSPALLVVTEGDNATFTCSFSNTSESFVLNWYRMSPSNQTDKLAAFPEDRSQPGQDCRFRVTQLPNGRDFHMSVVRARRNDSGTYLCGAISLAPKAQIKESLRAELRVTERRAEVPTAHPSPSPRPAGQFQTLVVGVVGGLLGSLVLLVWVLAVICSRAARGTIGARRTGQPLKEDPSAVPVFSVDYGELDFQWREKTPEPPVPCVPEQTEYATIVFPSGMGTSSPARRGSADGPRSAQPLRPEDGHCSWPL

human PD-1 [2] = molecular target: T1, human PD-1; test: cell-based or functional assay
[3] = molecular target: T2, Human PD-1 protein (His Tag) (human, UniProt Q15116 25-167); test: ELISA, plate coated with human PD-1 (his tag), anti-human IgG4 Fc-HRP
T2 construct: also called PD1-H5221; PD-1 antigen; not shown: His tag
T2 sequence (Q15116 25-167): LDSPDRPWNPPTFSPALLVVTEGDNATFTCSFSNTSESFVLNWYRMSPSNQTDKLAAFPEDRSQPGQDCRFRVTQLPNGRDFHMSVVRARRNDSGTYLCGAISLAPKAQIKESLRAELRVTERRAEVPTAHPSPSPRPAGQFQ

human PD-1 [4] = molecular target: T1, human PD-1; test: cell-based or functional assay; remark: listed apart in the source
[5] = molecular target: T3, human IL-2Rα receptor protein (Sino Biological, 10165-H08H) (human, UniProt P01589 22-213); test: SPR Biacore 8K, fusion protein captured by anti-human IgG (Fc), IL-2Rα as analyte
T3 construct: also called CD25
T3 sequence (looked up): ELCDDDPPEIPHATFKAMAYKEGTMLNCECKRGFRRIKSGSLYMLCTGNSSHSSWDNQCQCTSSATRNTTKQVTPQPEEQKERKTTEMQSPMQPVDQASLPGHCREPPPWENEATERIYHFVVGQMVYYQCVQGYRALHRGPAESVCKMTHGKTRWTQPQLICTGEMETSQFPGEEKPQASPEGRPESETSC

IL-2Rβ/γ on M07e cells = molecular target: T4, IL-2Rβ/γ on M07e cells (human, UniProt P14784 27-551; P31785 23-369); test: cell-based or functional assay
T4 sequence (looked up) 1: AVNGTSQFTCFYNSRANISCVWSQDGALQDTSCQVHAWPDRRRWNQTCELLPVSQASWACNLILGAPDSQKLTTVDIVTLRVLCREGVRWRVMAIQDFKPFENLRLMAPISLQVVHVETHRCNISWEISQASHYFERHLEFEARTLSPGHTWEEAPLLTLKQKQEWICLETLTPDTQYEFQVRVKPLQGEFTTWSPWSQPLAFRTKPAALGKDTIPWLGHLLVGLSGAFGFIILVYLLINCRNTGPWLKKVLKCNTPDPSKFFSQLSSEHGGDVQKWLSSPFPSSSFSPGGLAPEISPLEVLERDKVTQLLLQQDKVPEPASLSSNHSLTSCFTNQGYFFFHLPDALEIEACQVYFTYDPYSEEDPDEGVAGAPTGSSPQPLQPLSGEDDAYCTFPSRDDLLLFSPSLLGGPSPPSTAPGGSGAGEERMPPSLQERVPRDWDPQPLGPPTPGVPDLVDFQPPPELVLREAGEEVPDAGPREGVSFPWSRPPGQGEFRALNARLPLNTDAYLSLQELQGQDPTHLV
T4 sequence (looked up) 2: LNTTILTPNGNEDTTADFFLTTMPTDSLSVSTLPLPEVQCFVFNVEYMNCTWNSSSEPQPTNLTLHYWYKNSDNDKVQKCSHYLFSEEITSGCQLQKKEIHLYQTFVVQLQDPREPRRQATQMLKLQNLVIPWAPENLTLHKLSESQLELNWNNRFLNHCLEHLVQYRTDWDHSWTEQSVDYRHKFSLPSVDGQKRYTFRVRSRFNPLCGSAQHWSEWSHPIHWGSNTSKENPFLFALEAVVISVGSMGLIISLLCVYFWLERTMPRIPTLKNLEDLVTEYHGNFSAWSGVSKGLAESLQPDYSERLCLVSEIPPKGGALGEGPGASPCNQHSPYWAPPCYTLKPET

human PD-1 [6] = molecular target: T1, human PD-1; test: cell-based or functional assay; remark: listed apart in the source
[7] = molecular target: T5, human IL-2Rβ/γ receptor heterodimer protein (Acrosystem, ILG-H5283) (human, UniProt P14784 27-239; P31785 23-262, limits assumed); test: SPR Biacore 8K, fusion protein captured by anti-human IgG (Fc), human IL-2Rβ/γ heterodimer as analyte
T5 sequence (looked up) 1: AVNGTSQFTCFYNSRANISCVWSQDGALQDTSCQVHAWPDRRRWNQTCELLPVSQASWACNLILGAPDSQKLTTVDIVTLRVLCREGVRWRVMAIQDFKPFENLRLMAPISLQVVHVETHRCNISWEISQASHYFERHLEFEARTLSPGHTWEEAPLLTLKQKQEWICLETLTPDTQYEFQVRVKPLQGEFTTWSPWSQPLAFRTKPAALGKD
T5 sequence (looked up) 2: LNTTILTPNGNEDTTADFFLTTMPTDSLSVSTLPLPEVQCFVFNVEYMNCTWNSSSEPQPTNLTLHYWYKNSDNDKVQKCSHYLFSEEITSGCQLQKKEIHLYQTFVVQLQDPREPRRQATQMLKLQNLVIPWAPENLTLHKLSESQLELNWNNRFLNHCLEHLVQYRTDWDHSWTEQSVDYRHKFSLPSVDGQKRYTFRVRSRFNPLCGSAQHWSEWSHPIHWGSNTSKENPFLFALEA

human PD-1 [8] = molecular target: T1, human PD-1; test: cell-based or functional assay; remark: listed apart in the source
[9] = molecular target: Human PD-1 antigen protein (Sino Biological, 10377-H08H) (human, UniProt Q15116 25-167); test: SPR Biacore 8K, fusion protein captured by anti-human IgG (Fc), human PD-1 as analyte
Chain of Human PD-1 antigen protein (Sino Biological, 10377-H08H) (Q15116 25-167 limits assumed): as the sequence (Q15116 25-167) above

[10] = molecular target: T5, human IL-2Rβ/γ receptor heterodimer …; test: SPR Biacore 8K; affinity for human IL-2Rβ/γ against A-PC

B1: A6_hIgG4 (antibody, V domains shown)
VH: EVQLVESGGGLVQAGGSLRLSCAVSGRTFSSAAMGWFRQAPGKEREFVAAISWSFGSTYYADSVKGRFTISRDNAKNTVYLQMNSLKPEDTAVYYCAADPSIETMGGGWDYWGQGTQVTVSS
Human PD-1 [1]
  EC50: 1.09 nM
Human PD-1 [2]
  IC50, PD-1/PD-L1 NFAT reporter gene system: 1.35 nM
[3]
  EC50: 0.0861 nM

B2: A-PC (Fc fusion)
chain (part 1 of 2): EVQLVESGGGLVQPGGSLRLSCAASGLTFSDYSMSWYRQAPGKGRELVAIISGSGVITHYVDSVKGRFTISRDNAKNTLYLQMRSLRAEDTAVYYCRAVSDWEDYWGQGTQVTVSS
chain (part 2 of 2): GGGGSGGGGSGGGGSAPASSSTKKTQLQLEHLLLDLQMILQGISNYKNPKLTRMLTAKFYMPKKATELKHLQCLEEELKPLEEVLQGAQSKNFHLRPRDLISNINVIVLELKGSETTFMCEYADETATIVEFLNRWITFAQSIISTLT
chain: EVQLVESGGGLVQPGGSLRLSCAASGLTFSDYSMSWYRQAPGKGRELVAIISGSGVITHYVDSVKGRFTISRDNAKNTLYLQMRSLRAEDTAVYYCRAVSDWEDYWGQGTQVTVSS
notes: also called positive control molecule A-PC; PD-1-IL-2v; not shown: IgG1 hinge (C220S) + Fc Knob chain (L234A, L235A, S354C, T366W, EU); D356/L358 or E356/M358 ver; IgG1 hinge (C220S) + Fc Hole chain (L234A, L235A, Y349C, T366S, L368A, Y407V; may have H435R, Y436F; EU)
Human PD-1 [4]
  M07e-hPD-1 cell proliferation ratio (%) at 0.0001 nM: 4%
  M07e-hPD-1 cell proliferation ratio (%) at 0.001 nM: 8.1%
  M07e-hPD-1 cell proliferation ratio (%) at 0.01 nM: 29.3%
  M07e-hPD-1 cell proliferation ratio (%) at 0.1 nM: 99.5%
  M07e-hPD-1 cell proliferation ratio (%) at 1 nM: 112%
  M07e-hPD-1 cell proliferation ratio (%) at 10 nM: 107%
  M07e-hPD-1 cell proliferation ratio (%) at 100 nM: 105%
  M07e-hPD-1 cell proliferation ratio (%) at 1000 nM: 100%
[5]
  binding result: no binding
IL-2Rβ/γ on M07e cells
  M07e cell proliferation activity (%) at 0.46 nM: 0.1%
  M07e cell proliferation activity (%) at 1.4 nM: 3.6%
  M07e cell proliferation activity (%) at 4.1 nM: 28.1%
  M07e cell proliferation activity (%) at 12 nM: 41.6%
  M07e cell proliferation activity (%) at 37 nM: 71.7%
  M07e cell proliferation activity (%) at 111 nM: 87.2%
  M07e cell proliferation activity (%) at 333 nM: 89.8%
  M07e cell proliferation activity (%) at 1000 nM: 100%
Human PD-1 [6]
  M07e-hPD-1 cell proliferation activity (%) at 0.0001 nM: 1%
  M07e-hPD-1 cell proliferation activity (%) at 0.001 nM: 3%
  M07e-hPD-1 cell proliferation activity (%) at 0.01 nM: 28%
  M07e-hPD-1 cell proliferation activity (%) at 0.1 nM: 87%
  M07e-hPD-1 cell proliferation activity (%) at 1 nM: 99%
  M07e-hPD-1 cell proliferation activity (%) at 10 nM: 98%
  M07e-hPD-1 cell proliferation activity (%) at 100 nM: 102%
  M07e-hPD-1 cell proliferation activity (%) at 1000 nM: 100%
[7]
  Kd: 0.253 nM
  koff: 2.23e-05 s⁻¹
  kon: 88100 M⁻¹ s⁻¹
Human PD-1 [8]
  M07e-hPD-1 cell proliferation ratio (%) at 0.0001 nM: 2.4%
  M07e-hPD-1 cell proliferation ratio (%) at 0.001 nM: 4.9%
  M07e-hPD-1 cell proliferation ratio (%) at 0.01 nM: 33.7%
  M07e-hPD-1 cell proliferation ratio (%) at 0.1 nM: 79%
  M07e-hPD-1 cell proliferation ratio (%) at 1 nM: 95.9%
  M07e-hPD-1 cell proliferation ratio (%) at 10 nM: 113%
  M07e-hPD-1 cell proliferation ratio (%) at 100 nM: 112%
  M07e-hPD-1 cell proliferation ratio (%) at 1000 nM: 100%
[9]
  Kd: 19.4 nM
  koff: 0.00182 s⁻¹
  kon: 93700 M⁻¹ s⁻¹

B3: A-D20A (Fc fusion)
chain (part 1 of 2): EVQLVESGGGLVQPGGSLRLSCAASGLTFSDYSMSWYRQAPGKGRELVAIISGSGVITHYVDSVKGRFTISRDNAKNTLYLQMRSLRAEDTAVYYCRAVSDWEDYWGQGTQVTVSS
chain (part 2 of 2): GGGGSGGGGSGGGGSAPASSSTKKTQLQLEHLLLALQMILQGISNYKNPKLTRMLTAKFYMPKKATELKHLQCLEEELKPLEEVLQGAQSKNFHLRPRDLISNINVIVLELKGSETTFMCEYADETATIVEFLNRWITFAQSIISTLT
chain: EVQLVESGGGLVQPGGSLRLSCAASGLTFSDYSMSWYRQAPGKGRELVAIISGSGVITHYVDSVKGRFTISRDNAKNTLYLQMRSLRAEDTAVYYCRAVSDWEDYWGQGTQVTVSS
notes: also called PD-1-IL-2v (D20A); not shown: IgG1 hinge (C220S) + Fc Knob chain (L234A, L235A, S354C, T366W, EU); D356/L358 or E356/M358 ver; IgG1 hinge (C220S) + Fc Hole chain (L234A, L235A, Y349C, T366S, L368A, Y407V; may have H435R, Y436F; EU)
[5]
  binding result: no binding
IL-2Rβ/γ on M07e cells
  M07e cell proliferation activity (%) at 0.46 nM: -3%
  M07e cell proliferation activity (%) at 1.4 nM: -2.6%
  M07e cell proliferation activity (%) at 4.1 nM: -1.6%
  M07e cell proliferation activity (%) at 12 nM: -3%
  M07e cell proliferation activity (%) at 37 nM: -3.7%
  M07e cell proliferation activity (%) at 111 nM: -2.4%
  M07e cell proliferation activity (%) at 333 nM: -1.9%
  M07e cell proliferation activity (%) at 1000 nM: 0.6%
Human PD-1 [6]
  M07e-hPD-1 cell proliferation activity (%) at 0.0001 nM: 2.3%
  M07e-hPD-1 cell proliferation activity (%) at 0.001 nM: 2.9%
  M07e-hPD-1 cell proliferation activity (%) at 0.01 nM: 11.4%
  M07e-hPD-1 cell proliferation activity (%) at 0.1 nM: 24.2%
  M07e-hPD-1 cell proliferation activity (%) at 1 nM: 28.5%
  M07e-hPD-1 cell proliferation activity (%) at 10 nM: 30.2%
  M07e-hPD-1 cell proliferation activity (%) at 100 nM: 32%
  M07e-hPD-1 cell proliferation activity (%) at 1000 nM: 39.2%
[10]
  fold lower affinity than A-PC: ~63 fold
[7]
  Kd: 16 nM
  koff: 0.000681 s⁻¹
  kon: 42700 M⁻¹ s⁻¹
Human PD-1 [8]
  M07e-hPD-1 cell proliferation ratio (%) at 0.0001 nM: 0.6%
  M07e-hPD-1 cell proliferation ratio (%) at 0.001 nM: -0.3%
  M07e-hPD-1 cell proliferation ratio (%) at 0.01 nM: 2.6%
  M07e-hPD-1 cell proliferation ratio (%) at 0.1 nM: 8.4%
  M07e-hPD-1 cell proliferation ratio (%) at 1 nM: 10.8%
  M07e-hPD-1 cell proliferation ratio (%) at 10 nM: 10.8%
  M07e-hPD-1 cell proliferation ratio (%) at 100 nM: 13.5%
  M07e-hPD-1 cell proliferation ratio (%) at 1000 nM: 15.4%
[9]
  Kd: 18.5 nM
  koff: 0.00168 s⁻¹
  kon: 90600 M⁻¹ s⁻¹

B4: A17_hIgG4 (antibody, V domains shown)
VH: EVQVVESGGGLVQPGGSLRLSCVASGLTFSDYSMSWYRQAPGKERELVAIISGSGVIAHYVDSVKGRFTISRDNAKSTVYLQMVSLKPEDRGVYYCRAVSDWDDYWGQGTQVTVSS
Human PD-1 [1]
  EC50: 0.357 nM
Human PD-1 [2]
  IC50, PD-1/PD-L1 NFAT reporter gene system: 1.2 nM
[3]
  EC50: 0.061 nM
